We go through 1 molecule from patent US6689868 (Dana-Farber, dated 2004).

In assay [1] the target is SHPTP1 (endogenous, activated human T cells) (human, UniProt P29350 1-595, limits assumed). Kind of assay: co-immunoprecipitation with 8C93D8 from activated human T cell lysates, Western blot. The procedure:
(§1) To identify the protein tyrosine phosphatase associated with CD2BP1, activated human T cells were disrupted in lysis buffer at 30 ×10^6/ml and the supernatant collected as described above. After preclearing with control beads (CNBr activated beads linked to nonspecific mouse IgG at 5 mg/ml, Sigma) overnight, the supernatant was diluted to 10 ×10^6 cells/ml in lysis buffer containing 0.1% bovine serum albumin (BSA). CD2BP1 and any associated molecules were immunoprecipitated by incubation at 4° C. for 3 h with CNBr beads coupled to either anti-CD2BP1 mAb 8C93D8 or, as a control, nonspecific mouse IgG. After two washes in lysis buffer and one wash in TBS, the immunocomplexes on the beads were eluted by heating at 65° C. for 20 min in SDS sample buffer and subjected to 12.5% reducing SDS-PAGE. After electrophoresis, proteins on the gel were transferred to nitrocellulose for Western blotting. The membranes were then probed with different primary antibodies: rabbit anti-human PTP-PEST (CSH8) 1:1000 (Garton and Tonks, 1994), rabbit anti-human FLP (aEN12) 1:1000 (Dosil et al., 1996), goat anti-human SHPTP1 (Santa Cruz) 1:100, rabbit antihuman SHPTP2 (Santa Cruz) 1:100, followed by washing and incubation with the secondary HRPO-conjugated goat anti-rabbit antibody (1:5000) or donkey anti-goat antibody (Santa Cruz) 1:2000, and signals developed by ECL. […]

For assay [2], the target named is T1, SHPTP2 (endogenous, activated human T cells) (human, UniProt Q06124 2-593).
T1 sequence (looked up): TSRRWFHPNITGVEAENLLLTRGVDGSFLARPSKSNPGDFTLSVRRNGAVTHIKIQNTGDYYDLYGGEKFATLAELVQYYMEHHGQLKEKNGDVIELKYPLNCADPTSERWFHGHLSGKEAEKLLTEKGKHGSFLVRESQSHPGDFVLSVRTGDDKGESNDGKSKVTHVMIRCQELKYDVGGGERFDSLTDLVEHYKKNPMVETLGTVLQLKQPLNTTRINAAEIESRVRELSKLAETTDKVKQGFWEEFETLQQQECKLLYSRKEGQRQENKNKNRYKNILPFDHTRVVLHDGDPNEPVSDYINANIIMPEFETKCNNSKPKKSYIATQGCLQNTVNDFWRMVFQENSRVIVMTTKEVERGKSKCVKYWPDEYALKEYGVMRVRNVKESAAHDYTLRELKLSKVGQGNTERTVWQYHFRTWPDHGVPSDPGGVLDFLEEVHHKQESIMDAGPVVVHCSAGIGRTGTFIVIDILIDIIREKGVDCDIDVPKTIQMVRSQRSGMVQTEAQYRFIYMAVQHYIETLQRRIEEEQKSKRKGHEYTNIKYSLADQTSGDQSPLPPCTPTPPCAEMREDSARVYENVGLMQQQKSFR
Described as above. The protocol: as §1

SHPTP1 (endogenous, activated human T cells), sequence (P29350 whole entry): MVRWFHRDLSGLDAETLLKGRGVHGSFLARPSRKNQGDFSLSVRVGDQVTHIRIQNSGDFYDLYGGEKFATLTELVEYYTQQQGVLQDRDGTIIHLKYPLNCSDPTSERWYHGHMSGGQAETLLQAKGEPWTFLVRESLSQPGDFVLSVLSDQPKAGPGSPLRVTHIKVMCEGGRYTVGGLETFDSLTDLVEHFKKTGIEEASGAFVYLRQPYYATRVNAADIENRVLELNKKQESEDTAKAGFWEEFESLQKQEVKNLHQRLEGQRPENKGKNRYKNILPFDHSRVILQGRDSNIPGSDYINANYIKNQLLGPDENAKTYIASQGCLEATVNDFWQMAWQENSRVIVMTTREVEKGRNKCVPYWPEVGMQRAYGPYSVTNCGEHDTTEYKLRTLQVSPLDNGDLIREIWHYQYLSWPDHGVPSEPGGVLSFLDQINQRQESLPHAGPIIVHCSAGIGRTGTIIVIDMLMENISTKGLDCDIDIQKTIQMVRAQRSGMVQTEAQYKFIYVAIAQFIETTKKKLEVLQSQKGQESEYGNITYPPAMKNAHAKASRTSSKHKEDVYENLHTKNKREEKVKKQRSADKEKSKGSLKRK

B1: CD2BP1 protein (endogenous, activated human T cells) (other)
chain: MMPQLQFKDAFWCRDFTAHTGYEVLLQRLLDGRKMCKDMEELLRQRAQAEERYGKELVQIARKAGGQTEINSLRASFDSLKQQMENVGSSHIQLALTLREELRSLEEFRERQKEQRKKYEAVMDRVQKSKLSLYKKAMESKKTYEQKCRDADDAEQAFERISANGHQKQVEKSQNKARQCKDSATEAERVYRQSIAQLEKVRAEWEQEHRTTCEAFQLQEFDRLTILRNALWVHSNQLSMQCVKDDELYEEVRLTLEGCSIDADIDSFIQAKSTGTEPPAPVPYQNYYDREVTPLTSSPGIQPSCGMIKRFSGLLHGSPKTTSLAASAASTETLTPTPERNEGVYTAIAVQEIQGNPASPAQEYRALYDYTAQNPDELDLSAGDILEVILEGEDGWWTVERNGQRGFVPGSYLEKL
notes: Endogenous protein
Regarding B1, the binding result in assay [1] and in assay [2] was “no binding” in each case.
